Measured values from patent publication US6689596B2, “High level expression of human cyclooxygenase-2” (Merck & Co., Inc., priority 1992, dated 2004).

B1: IL1-α: human recombinant IL1-α (R and D systems Inc.) (protein, UniProt P01583 113-271, looked up)
Interleukin-1 alpha: SAPFSFLSNVKYNFMRIIKYEFILNDALNQSIIRANDQYLTAAALHNLDEAVKFDMGAYKSSKDDAKITVILRISKTQLYVTAQDEDQPVLLKEMPEIPKTITGSETNLLFFWETHGTKNYFTSVAHPNLFIATKQDYWVCLAGGPPSITDFQILENQA
B2: EGF: human EGF (CALBIOCHEM) (protein, UniProt P01133 23-1207, looked up)
Pro-epidermal growth factor: PQHWSCPEGTLAGNGNSTCVGPAPFLIFSHGNSIFRIDTEGTNYEQLVVDAGVSVIMDFHYNEKRIYWVDLERQLLQRVFLNGSRQERVCNIEKNVSGMAINWINEEVIWSNQQEGIITVTDMKGNNSHILLSALKYPANVAVDPVERFIFWSSEVAGSLYRADLDGVGVKALLETSEKITAVSLDVLDKRLFWIQYNREGSNSLICSCDYDGGSVHISKHPTQHNLFAMSLFGDRIFYSTWKMKTIWIANKHTGKDMVRINLHSSFVPLGELKVVHPLAQPKAEDDTWEPEQKLCKLRKGNCSSTVCGQDLQSHLCMCAEGYALSRDRKYCEDVNECAFWNHGCTLGCKNTPGSYYCTCPVGFVLLPDGKRCHQLVSCPRNVSECSHDCVLTSEGPLCFCPEGSVLERDGKTCSGCSSPDNGGCSQLCVPLSPVSWECDCFPGYDLQLDEKSCAASGPQPFLLFANSQDIRHMHFDGTDYGTLLSQQMGMVYALDHDPVENKIYFAHTALKWIERANMDGSQRERLIEEGVDVPEGLAVDWIGRRFYWTDRGKSLIGRSDLNGKRSKIITKENISQPRGIAVHPMAKRLFWTDTGINPRIESSSLQGLGRLVIASSDLIWPSGITIDFLTDKLYWCDAKQSVIEMANLDGSKRRRLTQNDVGHPFAVAVFEDYVWFSDWAMPSVMRVNKRTGKDRVRLQGSMLKPSSLVVVHPLAKPGADPCLYQNGGCEHICKKRLGTAWCSCREGFMKASDGKTCLALDGHQLLAGGEVDLKNQVTPLDILSKTRVSEDNITESQHMLVAEIMVSDQDDCAPVGCSMYARCISEGEDATCQCLKGFAGDGKLCSDIDECEMGVPVCPPASSKCINTEGGYVCRCSEGYQGDGIHCLDIDECQLGEHSCGENASCTNTEGGYTCMCAGRLSEPGLICPDSTPPPHLREDDHHYSVRNSDSECPLSHDGYCLHDGVCMYIEALDKYACNCVVGYIGERCQYRDLKWWELRHAGHGQQQKVIVVAVCVVVLVMLLLLSLWGAHYYRTQKLLSKNPKNPYEESSRDVRSRRPADTEDGMSSCPQPWFVVIKEHQDLKNGGQPVAGEDGQAADGSMQPTSWRQEPQLCGMGTEQGCWIPVSSDKGSCPQVMERSFHMPSYGTQTLEGGVEKPHSLLSANPLWQQRALDPPHQMELTQ
modifications: Pro-epidermal growth factor

Test system: osteosarcoma 143 cells
Assay: PGE2 synthesis by osteosarcoma 143 cells in response to arachidonic acid after treatment with growth factors/cytokines
Type: cell-based, human
Settings: within a 3-hour period, 1% serum, relative to cells grown in the absence of these factors

| Molecule | levels of PGE2 synthesis by osteosarcoma 143 cells in response to arachidonic acid (10 pg/ml) | levels of PGE2 synthesis by osteosarcoma 143 cells in response to arachidonic acid (15 ng/ml) |
| --- | --- | --- |
| B1 | increased | – |
| B2 | – | increased |
